Literature values in PMC9489792.

Columns and labels:
Asp85 = Asp85 (UniProt position 98, WARYADWLFTT); conditions: not stated (presumably the dark/ground state with protonated Schiff base)
Glu85 = Glu85 (UniProt position 98, WARYAEWLFTT); conditions: not stated (presumably the dark/ground state with protonated Schiff base)

Substance	pKa (Asp85)	pKa (Glu85)
Bacteriorhodopsin (BR) (Halobacterium salinarum (organism inferred; the article only says BR / bacteriorhodopsin))	3.6	
Bacteriorhodopsin D85E mutant (BR-D85E) (Halobacterium salinarum (organism inferred; the article only says BR / bacteriorhodopsin); D85E)		6.5
